B1: P5A-1D2 (antibody, human IgG1, lambda, V domains shown)
VH: EVQLVESGGGLIQPGGSLRLSCAASGFIVSSNYMSWVRQAPGKGLEWVSIIYSGGSTYYADSVKGRFTISRDNSNNTLYLQMNSLRAEDTAVYYCARALQVGATSDYFDYWGQGTLVTVSS
VL: QSVLTQPPSVSGAPGQRVTISCTGSSSNIGAGYDVHWYQQLPGTAPKLLIYGNSNRPSGVPDRFSGSKSGTSASLAITGLQAEDETDYYCQSCDSSLSVVVFGGGTKLTVLG
B2: P5A-2G9 (antibody, human IgG1, lambda, V domains shown)
VH: QVQLVESGGGVVQPGRSLRLSCAASGFTFSSYGMHWVRQAPGKGLEWVAVIWYDGSNKYYADSVKGRFTISRDNSKNTLYLQMNSLRAEDTAVYYCARWFHTGGYFDYWGQGTLVTVSS
VL: QPVLTQPPSSSASPGESARLTCTLPSDINVSSYNIYWYQQKPGSPPRYLLYYYSDSDKGQGSGVPSRFSGSKDASANTGILLISGLQSEDEADYYCMIWPSNALYVFGTGTKVTVLG
B3: P5A-3C8 (antibody, human IgG1, kappa, V domains shown)
VH: EVQLVESGGGLIQPGGSLRLSCAASGFTVSSNYMSWVRQAPGKGLEWVSFIYSGGSTYYADSVKGRFTISRDNSKNTLYLQMNSLRAEDTAVYYCARDLQEHGMDVWGQGTTVTVSS
VL: DIQLTQSPSSLSASVGDRVTITCRASQGISSYLAWYQQKPGKAPKLLIYAASTLQSGVPSRFSGSGSGTDFTLTISSLQPEDFATYYCQHLNSYPPGYTFGQGTKLEIKR
B4: P22A-1D1 (antibody, human IgG1, kappa, V domains shown)
VH: EVQLVESGGGLIQPGGSLRLSCAASGFTVSSNYMSWVRQAPGKGLEWVSVIYSGGSTYYADSVKGRFTISRDNSKNTLYLQMNSLRAEDTAVYYCARDRDYYGMDVWGQGTTVTVSS
VL: DIQLTQSPSFLSASVGDRVTITCRASQGISSYLAWYQQKPGKAPKLLIYAASTLQSGVPSRFSGSGSGTEFTLTISSLQPEDFATYYCLHLNSYRTFGLGTKVEIKR
B5: P2B-1A10 (antibody, human IgG1, kappa, V domains shown)
VH: EVQLVESGGGLIQPGGSLRLSCAASGFTVSSNYMSWVRQAPGKGLEWVSVIYSGGSTYYADSVKGRFTISRDNSKNTLYLQMNSLRAEDTAVYYCAREGPKSITGTAFDIWGQGTIVTVSS
VL: DIQMTQSPSSLSASVGDRVTITCQASQDISNYFNWYQQKPGKAPKLLIYDASNLETGVPSRFSGSGSGTDFTFTISSLQPEDIATYYCQQYDNLPMYTFGQGTKLEIKR
B6: P5A-2G7 (antibody, human IgG1, lambda, V domains shown)
VH: QVQLQESGPGLVKPSETLSLTCTVSGDSVSSGSYYWSWIRQPPGKGLEWIGYIYYSGSTNYNPSLKSRVTISVDTSKNQFSLKLSSVTAADTAVYYCARERCYYGSGRAPRCVWFDPWGQGTLVTVSS
VL: QSALTQPASVSGSPGQSITISCTGTSSDVGGYNYVSWYQQHPGKAPKLMIYDVSNRPSGVSNRFSGSKSGNTASLTISGLQAEDEADYYCSSYTSSSTLVVFGGGTKLTVLG
B7: P5A-1B8 (antibody, human IgG1, kappa, V domains shown)
VH: EVQLVESGGGLIQPGGSLRLSCAASGFTVSSNYMSWVRQAPGKGLEWVSVIYPGGSTFYADSVKGRFTISRDNSKNTLYLQMNSLRAEDTAVYYCARETLAFDYWGQGTLVTVSS
VL: DIQLTQSPSFLSASVGDRVTITCRASQGISSYLAWYQQKPGKAPKLLIYAASTLQSGVPSRFSGSGSGTEFTLTISSLQPEDFATYYCQQLNSYPPAFGGGTKVEIKR
B8: P5A-3C12 (antibody, human IgG1, kappa, V domains shown)
VH: QITLKESGPTLVKPTQTLTLTCTFSGFSLSTSGVGVGWIRQPPGKALEWLALIYWDDDKRYSPSLKSRLTITKDTSKNQVVLTMTNMDPVDTATYYCAHSLFLTVGYSSSWSPFDYWGQGTLVTVSS
VL: not shown
B9: P2A-1A9 (antibody, V domains shown)
VH: EVQLVESGGGLVQPGRSLRLSCAASGFTFDDYAMHWVRQVPGKGLEWVSGISWNGGIIGYADSVKGRFTISRDNAKTSLYLQMNSLRAEDTALYYCAKVAGRGDYDYYYGMDVWGQGTTVTVSS
VL: QSVLTQPPSVSGAPGQRVTISCTGSSSNIGAGYDVHWYQQLPGTAPKLLIYGNNNRPSGVPDRFSGSKSGTSASLAITGLQAEDEADYYCQSYDSSLSGSVFGGGTKLTVLG
B10: P2B-2G11 (antibody, V domains shown)
VH: EVQLVESGGGLVQPGRSLRLSCAASGFTFDDYAMHWVRQAPGKGLEWVSGISWNGGIIGYADSVKGRFTISRDNAKTSLYLQMNSLKPEDTALYYCAKVAGRGDYDYYYGMDVWGQGTTVTVSS
VL: QSVLTQPPSVSGAPGQRVTISCTGSSSNIGAGYDVHWYQQLPGTAPKLLIYGNNNRPSGVPDRFSGSKSGTSASLAITGLQAEDEADYYCQSYDSSLSGSVFGGGTKLTVLG
B11: P2B-2G4 (antibody, V domains shown)
VH: QVQLVESGGGVVQPGRSLRLSCAASGFTFSSYGMHWVRQAPGKGLEWVAVIWYDGSNKYYADSVKGRFTISRDNSKNTLYLQMNSLRAEDTAVYYCARGAAMVWLDYWGQGTLVTVSS
VL: QSALTQPRSVSGSPGQSVTISCTGTSSDVGGYNYVSWYQQHPGKAPKLMIYDVSKRPSGVPDRFSGSKSGNTASLTISGLQAEDEADYYCCSYAGSYTFVVFGGGTKLTVLG
B12: P2A-1B3 (antibody, V domains shown)
VH: EVQLVESGGGLVQPGGSLRLSCVASGFSFNRYSMNWLRQTPRKGLEWLSYISASGNTIYYADSVRGRFTTSRDNAKNTLYLQMNSLRDDDTAVYFCARPAMVREGTYNWFDPWGQGTLVTVSS
VL: EIVLTQSPGTLSLSPGERATLSCRASQSVSNDYLAWYQQKPGQAPRLLIYYASSRATGIPDRFSGSGSGTDFTLTISRLEPGDSAVYYCQQYGDSPPITFGQGTRLEIKR
B13: P2B-1D9 (antibody, human IgG1, lambda, V domains shown)
VH: QITLKESGPTLVKPTQTLTLTCTFSGFSLSTSGVGVGWIRQPPGKALEWLALIYWDDDKYYSPSLKSRLTITKDTSKNQVVLTMTNMDPVDTATYYCAHTRILYYGSGSYYDYWGQGTLVTVSS
VL: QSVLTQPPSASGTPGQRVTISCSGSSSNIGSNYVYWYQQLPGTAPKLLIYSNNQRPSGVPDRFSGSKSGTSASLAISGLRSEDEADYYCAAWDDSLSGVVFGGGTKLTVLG
B14: P2B-1A1 (antibody, human IgG1, lambda, V domains shown)
VH: QVQLQESGPGLVKPSETLSLTCTVSGGSISSYYWSWIRQPPGKGLEWIGYIYYSGSTNYNPSLKSRVTISVDTSKKQFSLKLSSVTAADTAVYYCARLERDWPLDAFDIWGQGTMVTVSS
VL: QSALTQPASVSGSPGQSITISCTGTSSDVGGYNYVSWYQQHPGKAPKFMIYDVSKRPSGVSNRFSGSKSGNTASLTISGLQAEDEADYYCSSYTSNNTFAFGGGTKLTVLG
B15: P2B-1A10 (antibody, human IgG1, kappa, V domains shown)
VH: EVQLVESGGGLIQPGGSLRLSCAASGFTVSSNYMSWVRQAPGKGLEWVSVIYSGGSTYYADSVKGRFTISRDNSKNTLYLQMNSLRAEDTAVYYCAREGPKSITGTAFDIWGQGTIVTVSS
VL: DIQMTQSPSSLSASVGDRVTITCQASQDISNYFNWYQQKPGKAPKLLIYDASNLETGVPSRFSGSGSGTDFTFTISSLQPEDIATYYCQQYDNLPMYTFGQGTKLEIKR
B16: P2B-1E4 (antibody, human IgG1, lambda, V domains shown)
VH: QITLKESGPTLVKPTQTLTLTCTFSGFSLSTSGVGVGWIRQPPGKALEWLALIYWDDDKRYSPSLKSRLTITKDTSKNQVVLTMTNMDPVDTATYYCAHQIVATIIDYWGQGTLVTVSS
VL: QSALTQPASVSGSPGQSITISCTGTSSDVGGYNYVSWYQQHPGKAPKLMIYDVSKRPSGVSNRFSGSKSGNTASLTISGLQAEDEADYYCSSYTSSSVVFGGGTKLTVLG
B17: P2A-1B3 (antibody, V domains shown)
VH: EVQLVESGGGLVQPGGSLRLSCVASGFSFNRYSMNWLRQTPRKGLEWLSYISASGNTIYYADSVRGRFTTSRDNAKNTLYLQMNSLRDDDTAVYFCARPAMVREGTYNWFDPWGQGTLVTVSS
VL: EIVLTQSPGTLSLSPGERATLSCRASQSVSNDYLAWYQQKPGQAPRLLIYYASSRATGIPDRFSGSGSGTDFTLTISRLEPGDSAVYYCQQYGDSPPITFGQGTRLEIKR

The binders below were run against receptor-binding domain (RBD) of the spike protein of SARS-CoV-2 (SARS-CoV-2, UniProt P0DTC2 319-541) (assay: not given).

In order of falling Kd:
1. B5  38.4 nM
2. B2  15.9 nM
3. B1  14 nM
4. B8  8.47 nM
5. B4  5.79 nM
6. B7  4.28 nM
7. B6  3.95 nM
8. B3  1.3 nM

What follows are binders tested against T1, full length spike (S) protein of SARS-CoV-2 (SARS-CoV-2, UniProt P0DTC2 14-1273) (assay: cell-based or functional assay).

In order of falling “IC50, pseudovirus neutralization” value:
1. B10  34.8 µg/mL
2. B9  26.3 µg/mL
3. B12  16.8 µg/mL
4. B11  5.11 µg/mL

In order of rising “Neutralizing activity (%) Mean at 0.0228624 µg/ml” value:
1. B11  -3.33%
2. B10  3.81%
3. B12  11.5%
4. B9  12.5%

In order of rising “Neutralizing activity (%) Mean at 0.0685871 µg/ml” value:
1. B11  -8.88%
2. B12  -0.545%
3. B10  13.9%
4. B9  15.9%

In order of falling “Neutralizing activity (%) Mean at 0.2057613 µg/ml” value:
1. B9  15.1%
2. B10  12.8%
3. B11  10.4%
4. B12  10.2%

In order of falling “Neutralizing activity (%) Mean at 0.6172839 µg/ml” value:
1. B12  23.3%
2. B11  20.2%
3. B9  14.3%

In order of rising “Neutralizing activity (%) Mean at 1.851852 µg/ml” value:
1. B9  15.9%
2. B10  16%
3. B12  22.1%
4. B11  35.4%

In order of rising “Neutralizing activity (%) Mean at 5.555555 µg/ml” value:
1. B10  19%
2. B9  34.8%
3. B12  37.2%
4. B11  46.4%

In order of rising “Neutralizing activity (%) Mean at 16.66667 µg/ml” value:
1. B10  25.9%
2. B9  41.2%
3. B12  43.6%
4. B11  65.2%

In order of falling “Neutralizing activity (%) Mean at 50 µg/ml” value:
1. B12  74.9%
2. B11  74.8%
3. B10  64.4%
4. B9  62.6%

Target: T1, full length spike (S) protein of …
Assay: cell-based or functional assay
Remark: another data set of the same source

In order of rising “IC50, pseudovirus neutralization” value:
1. B15  0.349 µg/mL
2. B14  0.687 µg/mL
3. B13  3.12 µg/mL
4. B16  5.96 µg/mL

These binders were tested against full length spike (S) protein of SARS-CoV-2 on pseudovirus (SARS-CoV-2, UniProt P0DTC2 14-1273) (assay: cell-based or functional assay).

With B17 the “Pseudovirus IC50” value was 16.8 µg/mL.

In the case of B17, the “Pseudovirus IC80” value is reported as greater than 50 µg/mL.

— US20210292392A1 (TSB THERAPEUTICS BEIJING, published 2021)
